The record followed here is article PMC5814829.

The Kd is the constant that tells how readily two partners part at equilibrium. Low readings indicate higher affinity, high ones lower affinity.

Holding throughout (experiment): fluorescence anisotropy
(In fluorescence polarisation assays a small probe gives low polarisation when free and higher when bound to something large.)

One data set deals with T1, ScPif1p DM (Saccharomyces cerevisiae, UniProt P07271 237-780, E242A;K273A;R281A).
T1 sequence: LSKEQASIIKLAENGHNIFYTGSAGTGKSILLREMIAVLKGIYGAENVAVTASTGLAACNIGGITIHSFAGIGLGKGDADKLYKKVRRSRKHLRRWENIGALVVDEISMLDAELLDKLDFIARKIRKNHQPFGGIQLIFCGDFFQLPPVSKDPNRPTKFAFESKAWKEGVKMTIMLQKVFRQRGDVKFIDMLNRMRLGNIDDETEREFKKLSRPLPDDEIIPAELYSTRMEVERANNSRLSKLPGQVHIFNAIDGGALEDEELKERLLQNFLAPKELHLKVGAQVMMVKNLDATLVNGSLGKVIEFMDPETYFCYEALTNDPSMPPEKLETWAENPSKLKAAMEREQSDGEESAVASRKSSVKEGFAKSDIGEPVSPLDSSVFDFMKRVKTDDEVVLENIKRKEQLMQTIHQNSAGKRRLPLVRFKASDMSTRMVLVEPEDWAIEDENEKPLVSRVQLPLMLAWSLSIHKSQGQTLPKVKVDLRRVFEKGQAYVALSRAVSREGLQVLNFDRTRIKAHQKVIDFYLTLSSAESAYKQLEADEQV

Another data set addresses T2, ScPif1p R324N (Saccharomyces cerevisiae, UniProt P07271 237-780, R324N).
T2 sequence: T1 sequence with A6E, A37K, A45R, R88N

The next data set addresses T3, ScPif1p R594A/K595A (Saccharomyces cerevisiae, UniProt P07271 237-780, R594A;K595A).
T3 sequence: T1 sequence with A6E, A37K, A45R, R358A, K359A

A further data set deals with T4, ScPif1p (237-780) (Saccharomyces cerevisiae, UniProt P07271 237-780).
T4 sequence: T1 sequence with A6E, A37K, A45R

Positions count from the first letter of the chain named.

B1: F-G417 (structured_DNA)
DNA: AGGGTGGGTGGGTGGGT
B1: the Kd came to 23.8 ± 2.5 nM in the data set with ScPif1p DM, 87.9 ± 7.1 nM in the data set with ScPif1p R324N and 72.9 ± 4.9 nM with ScPif1p R594A/K595A.

B2: GR12 (ssDNA)
DNA: GTGTGTGTGGTG
For the molecule B2, the Kd in the data set with ScPif1p DM was found to be 13.4 ± 0.8 nM; with ScPif1p R324N it was 11.4 ± 4.3 nM; with ScPif1p (237-780) it was 11.2 ± 2.1 nM; in the data set with ScPif1p R594A/K595A, 10.5 ± 3.5 nM.

B3: dsDNA16bp (dsDNA)
DNA 1: CTCTGCTCGACGGATT
DNA 2: AATCCGTCGAGCAGAG
With B3, the equilibrium dissociation constant (Kd) with ScPif1p DM was found to be 95.5 ± 8.5 nM; with ScPif1p R324N, 57.9 ± 1.1 nM; with ScPif1p (237-780) it was 81.3 ± 10.3 nM; in the data set with ScPif1p R594A/K595A it was 78.9 ± 9.3 nM.
